The target of series [1] is T1, FAM‐ERα‐pTV peptide.
T1 peptide: {FAM}-KYYITGEAEGFPA[pT]V
In words: fluorescence polarisation. Background: Fluorescence polarisation rises when a labelled molecule tumbles more slowly, as on binding a larger partner.

Series [2] concerns the target T1, FAM‐ERα‐pTV peptide. In words: fluorescence polarisation.
In series [3] the target is T1, FAM‐ERα‐pTV peptide. In words: fluorescence polarisation.
Series [4] concerns the molecule itself. In words: cross-linking.

Where no end group is shown, it is not given here. [ ]: non-standard residue; d: D form. pT = C[C@@H](OP(=O)(O)O)[C@H](N)C(=O)O; FAM = fluorescein

B1: recombinant N‐terminally GST‐tagged 14‐3‐3η (natural protein)
chain: MGDREQLLQRARLAEQAERYDDMASAMKAVTELNEPLSNEDRNLLSVAYKNVVGARRSSWRVISSIEQKTMADGNEKKLEKVKAYREKIEKELETVCNDVLSLLDKFLIKNCNDFQYESKVFYLKMKGDYYRYLAEVASGEKKNSVVEASEAAYKEAFEISKEQMQPTHPIRLGLALNFSVFYYEIQNAPEQACLLAKQAFDDAIAELDTLNEDSYKDSTLIMQLLRDNLTLWT
Consider B1, for which, in series [1], the “pEC50 with FC-A (100 μM)” value is 6.16. Also, in series [2], the “pEC50 with fragment 2 (1 mM)” value came to 5.92. Moreover, the pEC50 (usually the EC50 on a negative log10 scale, so that one unit is a factor of ten) in series [3] was found to be 5.13.

B2: His‐14‐3‐3γ (natural protein, UniProt P61981 1-247, looked up)
chain: MVDREQLVQKARLAEQAERYDDMAAAMKNVTELNEPLSNEERNLLSVAYKNVVGARRSSWRVISSIEQKTSADGNEKKIEMVRAYREKIEKELEAVCQDVLSLLDNYLIKNCSETQYESKVFYLKMKGDYYRYLAEVATGEKRATVVESSEKAYSEAHEISKEHMQPTHPIRLGLALNYSVFYYEIQNAPEQACHLAKTAFDDAIAELDTLNEDSYKDSTLIMQLLRDNLTLWTSDQQDDDGGEGNN
As for B2, the stoichiometry N (commonly the number of molecules, sites or subunits per partner or assembly) in series [4] was found to be 2.

The values are drawn from publication PMC9543038 (Chembiochem, 2022).
